Sequences and labels used below:
B1: AD-CEBP-1(aa 1–319) FL [C. elegans] / BD-IMA-3(aa 278–514) [C. elegans] (parent complex)
chain 1: MYSKLNYSHQKGDQALKHPHLVRLQQSEVRGFTDMPNNGASTSSAGSFARQDSLTIAASLQQRDRERHPVDFMETELDLGDYLQVLHDLDVPTDNVDFDDAELQKCNILYDGEHPYEQPELNGYERHVAYGTGYRVPGDYDQDGYKMNCEVKAETPDFGATKTRRAVKRPVPYDDYQKEYSEESSDMTDNDGSVDDSYFEPKSKKTKSAGLENFKPQTRARKYKLKADEEKAEPTYKLKRARNNDAVRKSRKKAKELQDKKEAEHDKMKRRIAELEGLLQSERDARRRDQDTLEQLLRNKGPMKEQRMPQRHILENFNK
chain 2: VVTHLVPLLGHVDVKVQTAALRAVGNIVTGTDEQTQLVLDSGVLRFMPGLLAHYKEKINKEAVWFVSNITAGNQQQVQDVFDAGIMPMIIHLLDRGDFPTQKEAAWAISNVTISGRPNQVEQMVKLGVLRPFCAMLSCTDSQIIQVVLDGINNILKMAGEAAEQVTSEIEECGGLDKIENLQNHENEDIYKLAFEIIDNFFSSDDETGNVEGAQSSAFGGDVPPVPDAPNGGWNFGK

The variants in the assay derive from B1. Kind of assay: yeast two-hybrid, β-galactosidase activity; parent: 110; read off a plot.
For chain 1 MYSKLNYSHQKGDQALKHPHLVRLQQSEVRGFTDMPNNGASTSSAGSFARQDSLTIAASLQQRDRERHPVDFMETELDLGDYLQVLHDLDVPTDNVDFDDAELQKCNILYDGEHPYEQPELNGYERHVAYGTGYRVPGDYDQDGYKMNCEVKAETPDFGATKTRRAVKRPVPYDDYQKEYSEESSDMTDNDGSVDDSYFEPKSAATASAGLENFKPQTRARKYKLKADEEKAEPTYKLKRARNNDAVRKSRKKAKELQDKKEAEHDKMKRRIAELEGLLQSERDARRRDQDTLEQLLRNKGPMKEQRMPQRHILENFNK [chain 1 K204A, chain 1 K205A, chain 1 K207A], the response was roughly 110 Miller units.
The value for chain 1 MYSKLNYSHQKGDQALKHPHLVRLQQSEVRGFTDMPNNGASTSSAGSFARQDSLTIAASLQQRDRERHPVDFMETELDLGDYLQVLHDLDVPTDNVDFDDAELQKCNILYDGEHPYEQPELNGYERHVAYGTGYRVPGDYDQDGYKMNCEVKAETPDFGATKTRRAVKRPVPYDDYQKEYSEESSDMTDNDGSVDDSYFEPKSKKTKSAGLENFKPQTRARKYKLKADEEKAEPTYKLAAARNNDAVRKSRKKAKELQDKKEAEHDKMKRRIAELEGLLQSERDARRRDQDTLEQLLRNKGPMKEQRMPQRHILENFNK [chain 1 K239A, chain 1 R240A] was roughly 190 Miller units; that for chain 1 MYSKLNYSHQKGDQALKHPHLVRLQQSEVRGFTDMPNNGASTSSAGSFARQDSLTIAASLQQRDRERHPVDFMETELDLGDYLQVLHDLDVPTDNVDFDDAELQKCNILYDGEHPYEQPELNGYERHVAYGTGYRVPGDYDQDGYKMNCEVKAETPDFGATATARAVAAPVPYDDYQKEYSEESSDMTDNDGSVDDSYFEPKSKKTKSAGLENFKPQTRARKYKLKADEEKAEPTYKLKRARNNDAVRKSRKKAKELQDKKEAEHDKMKRRIAELEGLLQSERDARRRDQDTLEQLLRNKGPMKEQRMPQRHILENFNK [chain 1 K162A, chain 1 R164A, chain 1 K168A, chain 1 R169A] was roughly 17 Miller units.

(Values after publication PMC6685058 (2019).)
